{"source": "paper PMC3675491", "about": "(Nucleic Acids Research, 2013)", "key": {"[1]": {"target": "T1, His6-σ^HrdB σ2 fragment (amino acids 211–347) (S. coelicolor, UniProt P18183 211-347)", "T1 sequence": "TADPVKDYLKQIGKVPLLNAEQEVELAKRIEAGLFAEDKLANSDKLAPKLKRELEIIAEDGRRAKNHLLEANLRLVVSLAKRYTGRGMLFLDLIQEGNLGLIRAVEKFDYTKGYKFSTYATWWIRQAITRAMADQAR", "assay": "[…]"}, "[2]": {"target": "T2, His6-σ^HrdB σ2–σ4 fragment (amino acids 211–511) (S. coelicolor, UniProt P18183 211-511)", "T2 sequence": "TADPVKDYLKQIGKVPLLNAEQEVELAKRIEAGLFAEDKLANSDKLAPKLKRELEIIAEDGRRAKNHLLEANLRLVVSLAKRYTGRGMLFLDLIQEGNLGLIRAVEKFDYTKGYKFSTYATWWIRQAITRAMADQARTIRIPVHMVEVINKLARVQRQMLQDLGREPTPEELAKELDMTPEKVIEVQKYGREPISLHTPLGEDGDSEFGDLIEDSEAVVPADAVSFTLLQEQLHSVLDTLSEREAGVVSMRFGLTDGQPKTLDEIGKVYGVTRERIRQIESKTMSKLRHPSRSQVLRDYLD", "assay": "[…]"}, "SEC": {"target": "the molecule itself", "assay": "SEC"}, "[3]": {"target": "T3, σ^HrdB (purified protein, 55.9 kDa) (S. coelicolor, UniProt P18183 1-511)", "T3 sequence": "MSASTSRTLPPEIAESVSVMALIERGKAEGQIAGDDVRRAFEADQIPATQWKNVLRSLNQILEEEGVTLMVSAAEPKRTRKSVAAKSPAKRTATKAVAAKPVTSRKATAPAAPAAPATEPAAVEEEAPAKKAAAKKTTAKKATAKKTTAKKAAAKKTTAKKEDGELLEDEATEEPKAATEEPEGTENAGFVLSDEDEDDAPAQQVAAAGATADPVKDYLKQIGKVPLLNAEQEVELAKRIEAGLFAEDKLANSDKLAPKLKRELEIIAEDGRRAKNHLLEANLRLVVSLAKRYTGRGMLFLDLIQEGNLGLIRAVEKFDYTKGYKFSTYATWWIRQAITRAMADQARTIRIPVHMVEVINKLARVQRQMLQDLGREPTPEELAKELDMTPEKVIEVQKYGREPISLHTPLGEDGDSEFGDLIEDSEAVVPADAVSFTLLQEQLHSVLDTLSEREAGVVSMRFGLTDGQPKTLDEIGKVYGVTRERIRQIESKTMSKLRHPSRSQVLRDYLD", "assay": "SEC"}}}
{"binder": "RbpA^Sc (native, untagged purified protein, 14.1 kDa) (natural protein) MSERALRGTRLVVTSYETDRGIDLAPRQAVEYACEKGHRFEMPFSVEAEIPPEWECKVCGAQALLVDGDGPEEKKAKPARTHWDMLMERRTREELEEVLEERLAVLRSGAMNIAVHPRDSRKSA", "values": [{"measurement": "binding result", "setting": "[1]", "value": "binds"}, {"measurement": "binding result", "setting": "[2]", "value": "binds"}, {"measurement": "stoichiometry N", "setting": "SEC", "value": 2}, {"measurement": "binding result", "setting": "[3]", "value": "binds"}]}
